Patent publication US20220112276A1 (Janssen / Centocor, published 2022)

What was measured:
[1] = target: T1, human pIgR extracellular domain (ECD) (human, UniProt P01833 19-638); experiment: SPR, VHH captured by anti-Fc, ECD analyte
T1 construct: Bought from R&D Systems (Cat 2717-PG-050); also called hpIgR ECD
Procedure: (§1) In an assay, two flow cells of the SPR were used, in which the flow cell 1 ran the buffer reference, and the flow cell 2 ran the analyte. […] The HBSP (GE) buffer was followed at a flow rate of 30 μL/min. Then, the VHHs were captured on the anti-human Fc protein surface at 0.5 ug/ml (˜200-300 RU) on the flow cell 2. The running buffer was changed to HBSP with 100 ug/ml BSA after the capture. Next, the pIgR extracellular domains were used as analyte and loaded in a series of concentrations, starting at 30 nM with further 3-fold dilution series.
(§2) The extracellular domains were prepared as follows: cynomolgus monkey and rat extracellular domains were produced and characterized in house; mouse and human pIgR extracellular domains were purchased from R&D Systems (Cat #2800-PG-050 & 2717-PG-050 respectively). The pIgR extracellular domains were injected from low to high concentration using a single-cycle kinetics method. The off-rate was monitored at 30 minutes after the last or highest concentration injection. The reference run was completed under the same conditions except that the pIgR injection was replaced by buffer injection.
(§3) The raw data were processed by subtracting two sets of reference data from the response data: (1) reference flow cell 1 subtracted from sample flow cell 2; and (2) buffer blank run subtracted from experimental run. The processed data at all concentrations for each VHH were globally fit to a 1:1 simple Langmuir binding model to extract estimates of the kinetic constants (kₒₙ, koff) and affinity constants (KD).

[2] = target: T2, cynomolgus monkey pIgR extracellular domain (cynomolgus monkey, UniProt A0A2K5WMU9 19-638); experiment: SPR, VHH captured by anti-Fc, ECD analyte
T2 construct: extracellular domain
T2 sequence (A0A2K5WMU9 entry or part of it): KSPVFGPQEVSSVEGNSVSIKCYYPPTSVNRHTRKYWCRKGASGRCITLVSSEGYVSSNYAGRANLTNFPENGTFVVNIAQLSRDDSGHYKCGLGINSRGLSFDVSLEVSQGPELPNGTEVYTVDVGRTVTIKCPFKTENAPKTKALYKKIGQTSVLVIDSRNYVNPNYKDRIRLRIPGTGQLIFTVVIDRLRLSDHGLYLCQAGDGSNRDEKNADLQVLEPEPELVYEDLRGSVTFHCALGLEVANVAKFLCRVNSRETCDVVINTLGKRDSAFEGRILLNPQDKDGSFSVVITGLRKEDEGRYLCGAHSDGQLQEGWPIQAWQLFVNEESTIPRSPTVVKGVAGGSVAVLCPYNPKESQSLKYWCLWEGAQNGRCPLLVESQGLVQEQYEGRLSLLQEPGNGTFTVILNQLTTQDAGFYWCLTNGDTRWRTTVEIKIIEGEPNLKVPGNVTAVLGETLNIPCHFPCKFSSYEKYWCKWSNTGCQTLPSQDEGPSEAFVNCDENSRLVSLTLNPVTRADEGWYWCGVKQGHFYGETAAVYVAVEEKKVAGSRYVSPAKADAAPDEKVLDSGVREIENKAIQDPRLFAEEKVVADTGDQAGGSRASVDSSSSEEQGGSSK
Procedure: as §1, §2, §3

T1 sequence (P01833 other isoform, or with tags, fused parts or gaps): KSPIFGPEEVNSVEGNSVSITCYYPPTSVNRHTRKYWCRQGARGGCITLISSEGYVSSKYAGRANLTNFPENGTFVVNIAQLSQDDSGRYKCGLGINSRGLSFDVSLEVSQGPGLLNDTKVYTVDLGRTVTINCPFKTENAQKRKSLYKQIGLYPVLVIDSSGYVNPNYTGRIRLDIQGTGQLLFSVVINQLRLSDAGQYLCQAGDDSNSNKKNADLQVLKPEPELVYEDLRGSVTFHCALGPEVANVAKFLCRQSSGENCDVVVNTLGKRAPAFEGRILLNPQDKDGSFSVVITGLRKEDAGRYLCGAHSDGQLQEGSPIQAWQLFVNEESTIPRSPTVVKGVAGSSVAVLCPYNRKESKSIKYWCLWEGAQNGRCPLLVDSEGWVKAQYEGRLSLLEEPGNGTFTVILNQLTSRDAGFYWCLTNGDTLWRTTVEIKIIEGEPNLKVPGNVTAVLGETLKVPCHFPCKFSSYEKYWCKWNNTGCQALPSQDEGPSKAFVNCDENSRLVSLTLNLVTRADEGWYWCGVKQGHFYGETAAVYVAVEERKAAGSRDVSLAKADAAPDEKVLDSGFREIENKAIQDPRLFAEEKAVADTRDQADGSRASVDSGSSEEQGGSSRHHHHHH

B1: 03D09R3 VHH Mono-Fc (Fc fusion)
chain: QVQLVESGGGLVQAGGSLRLSCAASGRTVSSVAMGWFRQAPGKEREFVATISWTGGSTYYADSVKGRFTISRDNAKNTAYLQMNSLKPEDTAVYYCAAGYPADPIALMTLRYEYDYWGQGTLVTVSSSPAPELLGGPSVFLFPPKPKDTLMISRTPEVTCVVVDVSHEDPEVKFNWYVDGVEVHNAKTKPREEQYNSTYRVVSVLTVLHQDWLNGKEYKCKVSNKALPAPIEKTISKAKGQPREPQVYTKPPSREEMTKNQVSLSCLVKGFYPSDIAVEWESNGQPENNYKTTVPVLDSDGSFRLASYLTVDKSRWQQGNVFSCSVMHEALHNHYTQKSLSLSPGK
Q: With B1 as the binder, how does the Kd [1] read?
A: 0.072 nM

Q: What about the Kd [2] of the same binder?
A: 0.004 nM

B2: 01D08R3 VHH Mono-Fc (Fc fusion)
chain: QVQLVESGGGLVQAGDSLRLSCAASGRTSSLYNMGWFRQAPGQEREFVAAIHWGGGRTYYADSVKGRFTISRDNAKNTVYLQMNSLEPGDTANYYCAARRAPELLDDYKQKPEEIGAYHYWGQGTQVTVSSSPAPELLGGPSVFLFPPKPKDTLMISRTPEVTCVVVDVSHEDPEVKFNWYVDGVEVHNAKTKPREEQYNSTYRVVSVLTVLHQDWLNGKEYKCKVSNKALPAPIEKTISKAKGQPREPQVYTKPPSREEMTKNQVSLSCLVKGFYPSDIAVEWESNGQPENNYKTTVPVLDSDGSFRLASYLTVDKSRWQQGNVFSCSVMHEALHNHYTQKSLSLSPGK
Q: With B2 as the binder, how does the Kd [1] read?
A: 0.195 nM

Q: And the Kd [2]?
A: 448 nM

B3: 01F03R2 VHH Mono-Fc (Fc fusion)
chain: QVQLVESGGGLVQAGGSLRLSCAASGRTFSSYAMGWFRQAPGKEREFVAVISWSGGSTYYADSVKGRFTISRDNAKNTVYLQMNSLKPEDTAVYYCASGEQPGSNRPYIPEQPIEFMPTDYPSWYDYWGQGTQVTVSSSPAPELLGGPSVFLFPPKPKDTLMISRTPEVTCVVVDVSHEDPEVKFNWYVDGVEVHNAKTKPREEQYNSTYRVVSVLTVLHQDWLNGKEYKCKVSNKALPAPIEKTISKAKGQPREPQVYTKPPSREEMTKNQVSLSCLVKGFYPSDIAVEWESNGQPENNYKTTVPVLDSDGSFRLASYLTVDKSRWQQGNVFSCSVMHEALHNHYTQKSLSLSPGK
Q: How did the Kd [1] turn out when B3 was run?
A: 1.36 nM

Q: And the Kd [2]?
A: 3.57 nM

B4: 01B01R3 VHH Mono-Fc (Fc fusion)
chain: QVQLVESGGGLVQAGGSLRLSCAASGRTFSSYAMGWFRQAPGKEREFVAVISWSGGSTYYADSVKGRFTISRDNAKNTVYLQMNSLKPEDTAVYYCASGEQPGSNRPYIPEQPIEFMPTDYPSWYDYWGQGTLVTVSSSPAPELLGGPSVFLFPPKPKDTLMISRTPEVTCVVVDVSHEDPEVKFNWYVDGVEVHNAKTKPREEQYNSTYRVVSVLTVLHQDWLNGKEYKCKVSNKALPAPIEKTISKAKGQPREPQVYTKPPSREEMTKNQVSLSCLVKGFYPSDIAVEWESNGQPENNYKTTVPVLDSDGSFRLASYLTVDKSRWQQGNVFSCSVMHEALHNHYTQKSLSLSPGK
Q: What does the source list for B4?
A: Kd [1]: 1.38 nM; Kd [2]: 3.78 nM

B5: 01D01R3 VHH Mono-Fc (Fc fusion)
chain: EVQLVESGGGLVQAGGSLRLSCAASGRTFSVYGMGWFRQAPGQERAFVAAISWSDGSTYYADSVKGRFTISRDNAKNTMYLQMNSLKPEDTAVYFCAADLTGWGLDADVSEYDYWGQGTQVTVSSSPAPELLGGPSVFLFPPKPKDTLMISRTPEVTCVVVDVSHEDPEVKFNWYVDGVEVHNAKTKPREEQYNSTYRVVSVLTVLHQDWLNGKEYKCKVSNKALPAPIEKTISKAKGQPREPQVYTKPPSREEMTKNQVSLSCLVKGFYPSDIAVEWESNGQPENNYKTTVPVLDSDGSFRLASYLTVDKSRWQQGNVFSCSVMHEALHNHYTQKSLSLSPGK
Q: With B5 as the binder, how does the Kd [1] read?
A: 5.96 nM

Q: What about the Kd [2] of the same binder?
A: 375 nM

B6: 01E03R2 VHH Mono-Fc (Fc fusion)
chain: EVQLVESGGGLVQAGGSLRLSCAASGRTFSVYGMGWFRQAPGQERAFVAAISWSDGSTYYADSVKGRFTISRDNAKNTMYLQMNSLKPEDTAVYFCAADLTGWGLDADVSEYDYWGQGTLVTVSSSPAPELLGGPSVFLFPPKPKDTLMISRTPEVTCVVVDVSHEDPEVKFNWYVDGVEVHNAKTKPREEQYNSTYRVVSVLTVLHQDWLNGKEYKCKVSNKALPAPIEKTISKAKGQPREPQVYTKPPSREEMTKNQVSLSCLVKGFYPSDIAVEWESNGQPENNYKTTVPVLDSDGSFRLASYLTVDKSRWQQGNVFSCSVMHEALHNHYTQKSLSLSPGK
Q: What does the source list for B6?
A: Kd [1]: 6.1 nM; Kd [2]: 373 nM

B7: 01G04R3 VHH Mono-Fc (Fc fusion)
chain: QVQLVESGGGLVQAGGSLRLSCAASGRTFSVYGMGWFRQAPGQERAFVAAISWSDGSTYYADSVKGRFTISRDNAKNTMYLQMNSLKPEDTAVYFCAADLTGWGLDADVSEYDYWGQGTQVTVSSSPAPELLGGPSVFLFPPKPKDTLMISRTPEVTCVVVDVSHEDPEVKFNWYVDGVEVHNAKTKPREEQYNSTYRVVSVLTVLHQDWLNGKEYKCKVSNKALPAPIEKTISKAKGQPREPQVYTKPPSREEMTKNQVSLSCLVKGFYPSDIAVEWESNGQPENNYKTTVPVLDSDGSFRLASYLTVDKSRWQQGNVFSCSVMHEALHNHYTQKSLSLSPGK
Q: For B7, which Kd [1] is on record?
A: 6.22 nM

Q: What about the Kd [2] of the same binder?
A: 399 nM

B8: 02B11R3 VHH Mono-Fc (Fc fusion)
chain: EVQLVESGGGLVQAGGSLRLSCAASGRTFSPYGMGWFRQTPGKERAFVAAVDWNDGSTYYSDSVKGRFTISRDNAKNTVYLQMNSLKSEDTAVYYCAADLTGWGLDADVSEYDYWGQGTLVTVSSSPAPELLGGPSVFLFPPKPKDTLMISRTPEVTCVVVDVSHEDPEVKFNWYVDGVEVHNAKTKPREEQYNSTYRVVSVLTVLHQDWLNGKEYKCKVSNKALPAPIEKTISKAKGQPREPQVYTKPPSREEMTKNQVSLSCLVKGFYPSDIAVEWESNGQPENNYKTTVPVLDSDGSFRLASYLTVDKSRWQQGNVFSCSVMHEALHNHYTQKSLSLSPGK
Q: Which Kd [1] does the source give for B8 here?
A: 0.858 nM

Q: What about the Kd [2] of the same binder?
A: 101 nM

B9: 01D02R3LS VHH Mono-Fc (Fc fusion)
chain: QVQLVESGGGLVQAGDSLTLSCAASGRSVGFDTYGMAWFRQAPGKEREFVASIAYNGETTSYADSVQGRFTVTRENAKNTIALRMNGLKPDDTAVYYCAAAQYYLTGTSFPAKFWGQGTLVTVSSSPAPELLGGPSVFLFPPKPKDTLMISRTPEVTCVVVDVSHEDPEVKFNWYVDGVEVHNAKTKPREEQYNSTYRVVSVLTVLHQDWLNGKEYKCKVSNKALPAPIEKTISKAKGQPREPQVYTKPPSREEMTKNQVSLSCLVKGFYPSDIAVEWESNGQPENNYKTTVPVLDSDGSFRLASYLTVDKSRWQQGNVFSCSVMHEALHNHYTQKSLSLSPGK
Q: With B9 as the binder, how does the Kd [1] read?
A: 0.809 nM

Q: What about the Kd [2] of the same binder?
A: 0.885 nM

B10: 03D01R3 VHH Mono-Fc (Fc fusion)
chain: EVQLVESGGGLVQPGGSLRLSCAASGFTFRTYYMGWFRQAPGKEREFVGVTRSSDDVTYYADSVKGRFTISRDNAKNTVYLQMSRLKPEDTAVYYCAAKPVPITRYSFPQIGEEYDYWGQGTLVTVSSSPAPELLGGPSVFLFPPKPKDTLMISRTPEVTCVVVDVSHEDPEVKFNWYVDGVEVHNAKTKPREEQYNSTYRVVSVLTVLHQDWLNGKEYKCKVSNKALPAPIEKTISKAKGQPREPQVYTKPPSREEMTKNQVSLSCLVKGFYPSDIAVEWESNGQPENNYKTTVPVLDSDGSFRLASYLTVDKSRWQQGNVFSCSVMHEALHNHYTQKSLSLSPGK
Q: B10 was tested. Which Kd [1] did it give?
A: 2.26 nM

Q: And the Kd [2]?
A: 5.51 nM

B11: 01C09R3 VHH Mono-Fc (Fc fusion)
chain: EVQLVESGGGLVQAGGSLRLSCAASGFTFRTYYMGWFRQAPGKEREFVGVTRSSDDVTYYADSVKGRFTISRDNAKNTVYLQMSRLKPEDTAVYYCAAKPVPITRYSFPQIGEEYDYWGQGTLVTVSSSPAPELLGGPSVFLFPPKPKDTLMISRTPEVTCVVVDVSHEDPEVKFNWYVDGVEVHNAKTKPREEQYNSTYRVVSVLTVLHQDWLNGKEYKCKVSNKALPAPIEKTISKAKGQPREPQVYTKPPSREEMTKNQVSLSCLVKGFYPSDIAVEWESNGQPENNYKTTVPVLDSDGSFRLASYLTVDKSRWQQGNVFSCSVMHEALHNHYTQKSLSLSPGK
Q: B11 was tested. Which Kd [1] did it give?
A: 2.18 nM

Q: And the Kd [2]?
A: 5.73 nM
